In this data set the test system is Escherichia coli TOP10. Kind of data set: shrunken log2 fold change of peptide-encoding DNA abundance (4.5 h post-induction vs induction); higher = less antimicrobial activity (less host growth inhibition). Conditions: time post-induction: 4.5 h; library: site-saturation at positions 5, 18, 19, 20.
Regarding RRIRARPPRLPRPRPRPAARPRP, the “shrunken log2 fold change” value was found to be 0.828. The result for RRIRERPPRLPRPRPRPNPNPRP reads -0.365. With RRIRTRPPRLPRPRPRPHVTPRP the figure was -0.15. For RRIRNRPPRLPRPRPRPLFFPRP, the “shrunken log2 fold change” value was -0.217. RRIRWRPPRLPRPRPRPDAIPRP: the “shrunken log2 fold change” value was -0.0199.

In the case of RRIRLRPPRLPRPRPRPLHGPRP, the “shrunken log2 fold change” value was 0.0823. For RRIRWRPPRLPRPRPRPWWTPRP, the “shrunken log2 fold change” value was -0.0199. Consider RRIRSRPPRLPRPRPRPGKQPRP, for which the “shrunken log2 fold change” value was 0.00846. With RRIRLRPPRLPRPRPRPQHNPRP the figure was -0.507; with RRIRLRPPRLPRPRPRPHFVPRP, -0.0621. Turning to RRIRQRPPRLPRPRPRPRAVPRP, the “shrunken log2 fold change” value is 2.78.

For RRIRYRPPRLPRPRPRPSSRPRP, the “shrunken log2 fold change” value was -0.0331. Turning to RRIRGRPPRLPRPRPRPIMFPRP, the “shrunken log2 fold change” value amounted to 0.382.

As for RRIRERPPRLPRPRPRPRVFPRP, the “shrunken log2 fold change” value is 0.138. Turning to RRIRLRPPRLPRPRPRPMIPPRP, the “shrunken log2 fold change” value is -0.0974. With RRIRDRPPRLPRPRPRPEDYPRP the figure was 0.0219; with RRIRYRPPRLPRPRPRPENMPRP, -0.134. For RRIRMRPPRLPRPRPRPSAPPRP, the “shrunken log2 fold change” value turned out to be 0.51. The result for RRIRLRPPRLPRPRPRPHDPPRP reads -0.459. In the case of RRIRFRPPRLPRPRPRPMQQPRP, the “shrunken log2 fold change” value was -0.0268. In the case of RRIRMRPPRLPRPRPRPFPSPRP, the “shrunken log2 fold change” value is -0.18.

Take RRIRSRPPRLPRPRPRPRPRPRP: the “shrunken log2 fold change” value was 0.815.

Regarding RRIRNRPPRLPRPRPRPCCKPRP, the “shrunken log2 fold change” value was -0.274. The result for RRIRHRPPRLPRPRPRPSKVPRP reads -0.146; that for RRIRIRPPRLPRPRPRPLNPPRP, -0.428; that for RRIRDRPPRLPRPRPRPPYVPRP, -0.0635. The result for RRIRGRPPRLPRPRPRPNWFPRP reads 0.469; that for RRIRERPPRLPRPRPRPAAQPRP, 0.261. Consider RRIRNRPPRLPRPRPRPGSWPRP, for which the “shrunken log2 fold change” value worked out at 0.257. Turning to RRIRGRPPRLPRPRPRPCNRPRP, the “shrunken log2 fold change” value was determined as 0.212.

As for RRIRQRPPRLPRPRPRPAEEPRP, the “shrunken log2 fold change” value turned out to be 0.0112. RRIRHRPPRLPRPRPRPMKEPRP: the “shrunken log2 fold change” value is 0.0572. Take RRIRVRPPRLPRPRPRPVGNPRP: the “shrunken log2 fold change” value is -0.129. Take RRIRYRPPRLPRPRPRPVGRPRP: the “shrunken log2 fold change” value is 0.0286. As for RRIRFRPPRLPRPRPRPTYGPRP, the “shrunken log2 fold change” value was -0.252. As to RRIRCRPPRLPRPRPRPHLSPRP, the “shrunken log2 fold change” value is -0.147. The result for RRIRMRPPRLPRPRPRPHYYPRP reads -0.061; that for RRIRARPPRLPRPRPRPCDQPRP, -0.00754; that for RRIRMRPPRLPRPRPRPMGNPRP, 0.451. The result for RRIRARPPRLPRPRPRPGIDPRP reads 0.652. As to RRIRFRPPRLPRPRPRPGIGPRP, the “shrunken log2 fold change” value is -0.0363.

For RRIRMRPPRLPRPRPRPCMAPRP, the “shrunken log2 fold change” value was 0.59. With RRIRYRPPRLPRPRPRPCCEPRP the figure was -0.567; with RRIRLRPPRLPRPRPRPTSLPRP, -0.112; with RRIRNRPPRLPRPRPRPCLWPRP, -0.359.

On to RRIRSRPPRLPRPRPRPYNSPRP, for which the “shrunken log2 fold change” value was -0.287. Regarding RRIRARPPRLPRPRPRPVLMPRP, the “shrunken log2 fold change” value came to 0.199.

On to RRIRIRPPRLPRPRPRPTVEPRP, for which the “shrunken log2 fold change” value is -0.0817. Regarding RRIRDRPPRLPRPRPRPPLTPRP, the “shrunken log2 fold change” value stood at 0.307. Turning to RRIRKRPPRLPRPRPRPMCQPRP, the “shrunken log2 fold change” value is -0.0286.

Turning to RRIRDRPPRLPRPRPRPCIQPRP, the “shrunken log2 fold change” value is -0.0125. Turning to RRIRFRPPRLPRPRPRPFMGPRP, the “shrunken log2 fold change” value was -0.348. For the sequence RRIRQRPPRLPRPRPRPQAPPRP, the “shrunken log2 fold change” value was found to be 0.233. The result for RRIRKRPPRLPRPRPRPQYRPRP reads -0.185; that for RRIRTRPPRLPRPRPRPMASPRP, 0.0589. As for RRIRSRPPRLPRPRPRPIDFPRP, the “shrunken log2 fold change” value is -0.0652. For the sequence RRIRDRPPRLPRPRPRPLQCPRP, the “shrunken log2 fold change” value is 0.0793.

On to RRIRCRPPRLPRPRPRPEDHPRP, for which the “shrunken log2 fold change” value was -0.0393. Regarding RRIRSRPPRLPRPRPRPDLAPRP, the “shrunken log2 fold change” value is 0.444. With RRIRCRPPRLPRPRPRPDDLPRP the figure was -0.118; with RRIRTRPPRLPRPRPRPFFRPRP, 0.234. On to RRIRERPPRLPRPRPRPPIFPRP, for which the “shrunken log2 fold change” value was -0.0515. As for RRIRTRPPRLPRPRPRPFYMPRP, the “shrunken log2 fold change” value is -0.369. As to RRIRWRPPRLPRPRPRPRPQPRP, the “shrunken log2 fold change” value came out at 0.588. As to RRIRTRPPRLPRPRPRPSGKPRP, the “shrunken log2 fold change” value is -0.0608. For RRIRLRPPRLPRPRPRPTMQPRP, the “shrunken log2 fold change” value is -0.0477. Regarding RRIRNRPPRLPRPRPRPKHVPRP, the “shrunken log2 fold change” value was -0.0669. Regarding RRIRWRPPRLPRPRPRPVGWPRP, the “shrunken log2 fold change” value is 1.13.

For RRIRFRPPRLPRPRPRPRSKPRP, the “shrunken log2 fold change” value came to 0.0303. In the case of RRIRCRPPRLPRPRPRPYCLPRP, the “shrunken log2 fold change” value is -0.442. Turning to RRIRCRPPRLPRPRPRPCIIPRP, the “shrunken log2 fold change” value is -0.538.

For RRIRMRPPRLPRPRPRPGHRPRP, the “shrunken log2 fold change” value was 1.35. As to RRIRPRPPRLPRPRPRPQDFPRP, the “shrunken log2 fold change” value is -0.0957. For the sequence RRIRARPPRLPRPRPRPIIVPRP, the “shrunken log2 fold change” value was -0.226. As to RRIRYRPPRLPRPRPRPARCPRP, the “shrunken log2 fold change” value came to 0.0957. As for RRIRDRPPRLPRPRPRPAGEPRP, the “shrunken log2 fold change” value was found to be 0.0114.

Turning to RRIRYRPPRLPRPRPRPAHGPRP, the “shrunken log2 fold change” value worked out at 0.1.

Regarding RRIRYRPPRLPRPRPRPYLKPRP, the “shrunken log2 fold change” value is -0.478.

RRIRPRPPRLPRPRPRPKIEPRP: the “shrunken log2 fold change” value stood at 0.0313.

As to RRIRPRPPRLPRPRPRPMSNPRP, the “shrunken log2 fold change” value was -0.127. With RRIRDRPPRLPRPRPRPHVTPRP, the “shrunken log2 fold change” value was -0.631.

On to RRIRWRPPRLPRPRPRPELQPRP, for which the “shrunken log2 fold change” value is 0.326. RRIRTRPPRLPRPRPRPKWWPRP: the “shrunken log2 fold change” value was found to be 0.683. Take RRIRLRPPRLPRPRPRPETCPRP: the “shrunken log2 fold change” value is -0.0935. The result for RRIRSRPPRLPRPRPRPRVGPRP reads 0.578. As for RRIRSRPPRLPRPRPRPFSMPRP, the “shrunken log2 fold change” value is -0.0498.

In the case of RRIRHRPPRLPRPRPRPITVPRP, the “shrunken log2 fold change” value is -0.0184. As to RRIRPRPPRLPRPRPRPQYEPRP, the “shrunken log2 fold change” value is -0.583. As to RRIRGRPPRLPRPRPRPIWGPRP, the “shrunken log2 fold change” value is 0.128. On to RRIRIRPPRLPRPRPRPIERPRP, for which the “shrunken log2 fold change” value was -0.0785. As to RRIRVRPPRLPRPRPRPAMLPRP, the “shrunken log2 fold change” value turned out to be 0.0111.

These data come from the supplement of paper PMC9112550, “Optimization of the antimicrobial peptide Bac7 by deep mutational scanning” (BMC Biology, 2022).
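Also: peptides expressed intracellularly from a pBAD plasmid library in pooled LB shake-flask culture, induced with 0.3% L-arabinose, DNA abundance read by NGS, three biological replicates, DESeq2 with apeglm shrinkage.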
